Laboratory results published in patent US20260007728A1, “COMBINATION THERAPIES INVOLVING L-ASPARAGINASE” (Jazz Pharmaceuticals Ireland Ltd., priority 2022, published 2026).

Assays:
[1] = system: BCL2 expression in triple hit lymphoma line WSU-DLCL2; test: qPCR gene expression after compound treatment; format: cell-based
Procedure: (§1) Cell Culture: Cell culture medium: RPMI 1640 medium (#2198761, Thermo Fisher) supplemented with 10% fetal calf serum (#S00AZ, BioWest) and 1% pen/strep (#15140-122, Thermo Fisher). At day-1, 900 μl cell suspension was seeded in 24-well plates (#662165, Greiner Bio-One) at a density of 128,000 cells/well. At day 0, 100 μl compound was added in three different concentrations to reach a final concentration of 0.316×IC50, 1×IC50, and 3.16×IC50 (unless indicated otherwise). To the control samples, 100 μl 20 mM HEPES+3.16% DMSO was added instead of compound. When the compound is prepared in HEPES instead of DMSO, 20 mM HEPES without DMSO was added to the cells. The cells were collected at 6 hours, 24 hours and 48 hours after addition of the compound and were transferred to a 96-well deep well plate and centrifuged for 5 min at 340×g. Prior to the collection of the cells microscopic pictures were taken from the untreated (control) cells. After removing the medium, 200 μl RNA protect (#76526, Qiagen) was added to the cell pellet and the cells were stored at −80° C.
(§2) RNA isolation: Total RNA was isolated with the SV96 Total RNA Isolation System kit (#Z3505, Promega) according to manufacturer's instructions. The procedure includes a ‘RNAse free DNAse’ gDNA removal step.
(§3) Determining the RNA concentration: RNA concentrations were determined with the RiboGreen (#R11490, Thermo Fisher) kit according to manufacturer's instructions.
(§4) cDNA synthesis: RNA was reverse transcribed into cDNA using the Quantitect Reverse Transcript Kit (#205313, Qiagen) according to manufacturer's instructions. This procedure includes a second ‘RNAse free DNAse’ gDNA removal step, ensuring the complete removal of gDNA from the samples. For each time point (6 h, 24 h, or 48 h) identical volumes of RNA were used for cDNA synthesis. After synthesis, cDNA is diluted with nuclease free water to obtain approximately similar cDNA concentrations per sample.
(§5) qPCR: 1) 50° C. for 10 min (Uracil-DNA glycosylase ([…]) step to remove all potential traces of amplicon DNA from previous qPCRs); 2) 5 min UDP inactivation/denaturation at 95° C.; 3) 40 cycles of 10s denaturation at 95° C., 20s annealing at 60° C., and 30s extension at 72° C.; and 4) Dissociation curve to determine the melting temperature of the qPCR amplicon.
(§6) qPCR Data Analysis: Cq and Tm raw data values are determined by the BioRad CFX manager software from the PCR machine. For every PCR sample that produced a Cq value the corresponding melting temperature of the PCR amplicon (Tm) was checked to identify samples that generated dual or a specific PCR products. A PCR product is regarded a specific when its Tm is >0.5° C. different from that the Tm of the specific PCR amplicon, in this case the Cq value is removed and not used for further data analysis. Cq values were than normalized by subtracting the (mean) Cq value of the two housekeeping genes (ACTB & RPS18) from the Cq value of the gene of interest. The normalized value is called DCq. The Cq difference between sample and the control (DDCq) was calculated by subtracting DCq control from DCq sample. The fold difference in expression between the control (no compound) and the compound treated sample is than calculated according the 2^-DDCq method.

[2] = system: cell lines with low and high ASNS expression; test: Bliss synergy of pathway inhibitors with JZP-458 (cytotoxicity readout); format: cell-based; details: in combination with JZP-458
Procedure: Combination study BLISS matrix-Bliss Assay Protocol: Cells were plated in 384-well plates in 45 μl cell culture medium at a density of, that is, at numbers of cells per well as indicated in FIG. 24. For each cell line, the optimal cell density was determined a priori to obtain an optimal assay window. Plated cells were incubated in a humidified incubator with 5% CO2 at 37° C. 24 hours post-plating, 5 μl of compound dilution was added to each well and plates were further incubated for another 72 hours after which 25 μl of ATPlite 1 Step (PerkinElmer, Groningen, The Netherlands) solution was added to each well. Luminescence was recorded on an Envision multimode reader (PerkinElmer, Waltham, MA, U.S.A.). For determination of Bliss independence scores, two drugs were added in increasing concentrations in a 6×6 matrix. […] The percent viability for each drug either alone or in combination was determined relative to control samples and the Bliss independence scores for each combination were determined as described (Liu, Q., et al., Stat Biopharm. Res. 10: 112; 2018). […]

[3] = Aggregation of asparaginase batches; format: physicochemical; details: product batches
Excerpt: In some embodiments, the recombinant L-asparaginase of the disclosure has greater purity than other L-asparaginases. […] In some embodiments, the amount of aggregation of the recombinant L-asparaginase is less than 10%, 9%, 8%, 7%, 6%, 5%, 4%, 3%, 2%, 1%, 0.5%, 0.25%, 0.2%, 0.1%, or 0.01%. In some embodiments, the amount of aggregation seen in compositions containing the recombinant L-asparaginase is less than 1-10%. In some embodiments, the amount of aggregation seen in compositions containing the recombinant L-asparaginase is less than 10%. In some embodiments, the amount of aggregation of the recombinant L-asparaginase is less than 9%. In some embodiments, the amount of aggregation of the recombinant L-asparaginase is less than 8%. In some embodiments, the amount of aggregation of the recombinant L-asparaginase is less than 7%. In some embodiments, the amount of aggregation of the recombinant L-asparaginase is less than 6%. In some embodiments, the amount of aggregation of the recombinant L-asparaginase is less than 5%. In some embodiments, the amount of aggregation of the recombinant L-asparaginase is less than 4%. In some embodiments, the amount of aggregation of the recombinant L-asparaginase is less than 3%. In some embodiments, the amount of aggregation of the recombinant L-asparaginase is less than 2%. […]

[4] = In vivo tolerability study in naïve SCID mice; details: 150 U/kg in combination with venetoclax and R-CHOP constituents
Excerpt: Sensitivity to asparaginase and 11 chemotherapeutic agents (carfilzomib, doxorubicin, rapamycin, ibrutinib, cyclophosphamide, prednisolone, metformin, venetoclax, navitoclax, rituximab and vincristine) determined in 8 lymphoma lines, including diffuse large B-cell and Burkitt lymphomas. The investigated lymphoma lines are sensitive to asparagine depletion within the clinically achievable range. Expression of decisive genes (BCL2, BCL6, BCL2L1, MYC, ASNS) determined in 8 lymphoma lines (FIGS. 11 and 12). Increased expression of BCL2 served as marker for resistance of ibrutinib and rapamycin in triple hit lymphoma (FIGS. 11 and 12). Increased expression of ASNS served as marker for resistance of carfilzomib and asparaginase in Burkitt lymphoma (FIGS. 11 and 12). Identified combination agents that enhanced asparaginase activity in vitro include synergy of JZP458 and rituximab, venetoclax and ibrutinib in lymphoma lines (DLBCL) (see FIG. 13, FIG. 15, and FIG. 17). […] In vivo tolerability study of long acting Erwinia Asparaginase.

[5] = Half life of asparaginases; details: in vivo
[6] = system: ASNS expression in Burkitt lymphoma lines; test: qPCR gene expression after compound treatment; format: cell-based
Procedure: as §1, §2, §3, §4, §5, §6

[7] = system: BCL2 expression in DLBCL lines (ABC and GCB type); test: qPCR gene expression after compound treatment; format: cell-based
Procedure: as §1, §2, §3, §4, §5, §6

[8] = system: liquid tumors with NRAS mutations; test: Sensitivity to L-asparaginase across cell line panel by NRAS status; format: cell-based; details: NRAS mutant vs other lines
Procedure: Sensitivity to L-asparaginase was determined in 140 lines across multiple indications. In silico tandem perturbation effects of Asparagine synthetase and signaling components analyzed (≈700 lines). A subset of lines are ASNS dependent for survival (see McDonald, E. Robert et al. (2017). Project DRIVE: A Compendium of Cancer Dependencies and Synthetic Lethal Relationships Uncovered by Large-Scale, Deep RNAi Screening. Cell 170, 577-592 and https://oncologynibr.shinyapps.io/drive/which is herein incorporated by reference to show expression of ASNS and sensitivity to asparagine depletion). In vitro, most lines are sensitive to asparagine depletion within a clinically achievable range (see FIG. 6).

Molecule: C=CC(=O)N1CCC[C@@H](n2nc(-c3ccc(Oc4ccccc4)cc3)c3c(N)ncnc32)C1 [ibrutinib]
- increase of BCL2 expression [1]: 1.25 fold

Molecule: CO[C@H]1C[C@@H]2CC[C@@H](C)[C@@](O)(O2)C(=O)C(=O)N2CCCC[C@H]2C(=O)O[C@H]([C@H](C)C[C@@H]2CC[C@@H](OCCO)[C@H](OC)C2)CC(=O)[C@H](C)/C=C(\C)[C@@H](O)[C@@H](OC)C(=O)[C@H](C)C[C@H](C)/C=C/C=C/C=C/1C [everolimus]
- Bliss sum score compared with PI3K inhibitors and MEK inhibitors [2]: increased

Molecule: CO[C@H]1C[C@@H]2CC[C@@H](C)[C@@](O)(O2)C(=O)C(=O)N2CCCC[C@H]2C(=O)O[C@H]([C@H](C)C[C@@H]2CC[C@@H](O)[C@H](OC)C2)CC(=O)[C@H](C)/C=C(\C)[C@@H](O)[C@@H](OC)C(=O)[C@H](C)C[C@H](C)/C=C/C=C/C=C/1C [rapamycin]
- increase of BCL2 expression [1]: 1 fold

B1: Erwinase: Erwinia chrysanthemi L-asparaginase type II product commercially approved for ALL (protein, UniProt P06608 22-348, looked up)
L-asparaginase: ADKLPNIVILATGGTIAGSAATGTQTTGYKAGALGVDTLINAVPEVKKLANVKGEQFSNMASENMTGDVVLKLSQRVNELLARDDVDGVVITHGTDTVEESAYFLHLTVKSDKPVVFVAAMRPATAISADGPMNLLEAVRVAGDKQSRGRGVMVVLNDRIGSARYITKTNASTLDTFKANEEGYLGVIIGNRIYYQNRIDKLHTTRSVFDVRGLTSLPKVDILYGYQDDPEYLYDAAIQHGVKGIVYAGMGAGSVSVRGIAGMRKAMEKGVVVIRSTRTGNGIVPPDEELPGLVSDSLNPAHARILLMLALTRTSDPKVIQEYFHTY
- aggregation [3]: about 6%

B2: JZP341: pasylated L-asparaginase; long acting Erwinia asparaginase (protein, UniProt P06608 22-348, looked up)
L-asparaginase: B1 L-asparaginase
modifications: PASylated
- tolerability [4]: tolerated
- half life t½ [5]: ~16 h

B3: JZP-458: recombinant, unfunctionalized, short acting Erwinia L-asparaginase (SEQ ID NO: 1 tetramer) (protein, listed as Dickeya chrysanthemi)
chain: B1 L-asparaginase
modifications: homotetramer
- change of ASNS expression ([6]; Burkitt lymphoma lines): significantly increase
- increase of ASNS expression ([6]; Burkitt lymphoma lines (BJAB, RAJI, RAMOS), after treatment): 0.75 fold
- change of BCL2 expression [7]: decrease
- half life t½ [5]: ~2.13 h
- sensitivity of liquid tumors with NRAS mutations [8]: more sensitive
